From IntAct's records for PubMed 26912900

B1: 26S proteasome regulatory subunit RPN1 (Saccharomyces cerevisiae), P38764 (parent)
chain: MVDESDKKQQTIDEQSQISPEKQTPNKKDKKKEEEEQLSEEDAKLKTDLELLVERLKEDDSSLYEASLNALKESIKNSTSSMTAVPKPLKFLRPTYPDLCSIYDKWTDPNLKSSLADVLSILAMTYSENGKHDSLRYRLLSDVSDFEGWGHEYIRHLALEIGEVYNDQVEKDAEDETSSDGSKSDGSAATSGFEFSKEDTLRLCLDIVPYFLKHNGEEDAVDLLLEIESIDKLPQFVDENTFQRVCQYMVACVPLLPPPEDVAFLKTAYSIYLSQNELTDAIALAVRLGEEDMIRSVFDATSDPVMHKQLAYILAAQKTSFEYEGVQDIIGNGKLSEHFLYLAKELNLTGPKVPEDIYKSHLDNSKSVFSSAGLDSAQQNLASSFVNGFLNLGYCNDKLIVDNDNWVYKTKGDGMTSAVASIGSIYQWNLDGLQQLDKYLYVDEPEVKAGALLGIGISASGVHDGEVEPALLLLQDYVTNPDTKISSAAILGLGIAFAGSKNDEVLGLLLPIAASTDLPIETAAMASLALAHVFVGTCNGDITTSIMDNFLERTAIELKTDWVRFLALALGILYMGQGEQVDDVLETISAIEHPMTSAIEVLVGSCAYTGTGDVLLIQDLLHRLTPKNVKGEEDADEEETAEGQTNSISDFLGEQVNEPTKNEEAEIEVDEMEVDAEGEEVEVKAEITEKKNGESLEGEEIKSEEKKGKSSDKDATTDGKNDDEEEEKEAGIVDELAYAVLGIALIALGEDIGKEMSLRHFGHLMHYGNEHIRRMVPLAMGIVSVSDPQMKVFDTLTRFSHDADLEVSMNSIFAMGLCGAGTNNARLAQLLRQLASYYSREQDALFITRLAQGLLHLGKGTMTMDVFNDAHVLNKVTLASILTTAVGLVSPSFMLKHHQLFYMLNAGIRPKFILALNDEGEPIKVNVRVGQAVETVGQAGRPKKITGWITQSTPVLLNHGERAELETDEYISYTSHIEGVVILKKNPDYREEE
partner: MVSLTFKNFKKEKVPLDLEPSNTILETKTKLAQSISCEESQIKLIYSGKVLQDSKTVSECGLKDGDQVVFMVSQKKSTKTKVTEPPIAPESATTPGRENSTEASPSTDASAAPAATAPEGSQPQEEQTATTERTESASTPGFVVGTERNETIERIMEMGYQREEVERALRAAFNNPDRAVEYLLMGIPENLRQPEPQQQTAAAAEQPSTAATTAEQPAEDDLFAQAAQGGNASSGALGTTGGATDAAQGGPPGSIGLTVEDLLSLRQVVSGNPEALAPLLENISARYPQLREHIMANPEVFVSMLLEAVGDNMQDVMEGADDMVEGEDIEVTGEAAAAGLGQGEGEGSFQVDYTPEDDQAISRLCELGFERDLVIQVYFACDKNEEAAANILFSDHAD

Variants of: B1
Details: with rad23_yeast RAD23, P32628

Row | effect of a mutation on the interaction | Variant
1 | disrupting interaction strength | D541A;D548R;E552R
